The chains are these.
T1: Sus1 (of the in vitro binding studies of Figure S6) (yeast, UniProt Q6WNK7 1-96)
T1 construct: Sus1, yeast
T1 sequence (looked up): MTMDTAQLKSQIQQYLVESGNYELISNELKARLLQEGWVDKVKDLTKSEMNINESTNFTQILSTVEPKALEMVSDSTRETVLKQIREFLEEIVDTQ

T2: 6XHis-ENY2 (human, UniProt Q9NPA8 1-101)
T2 construct: ENY2, human homolog of Sus1; cDNA cloned into the NdeI and SalI sites of pET28a; also called human Sus1 homolog; DC6/ENY2; source: E. coli BL21, purified (Ni-NTA Agarose)
T2 sequence (looked up): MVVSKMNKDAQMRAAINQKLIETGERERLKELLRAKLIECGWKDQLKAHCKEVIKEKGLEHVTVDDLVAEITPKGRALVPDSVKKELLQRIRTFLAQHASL

T3: Sac3 residues 723–805 (Sac3^CID) (yeast, UniProt P46674 723-805)
T3 construct: Vector pGEXTEV; also called CID domain; not shown: GST, N-terminal, cleaved
T3 sequence (looked up): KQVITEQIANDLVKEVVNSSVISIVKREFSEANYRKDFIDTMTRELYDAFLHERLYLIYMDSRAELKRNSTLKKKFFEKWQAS

B1: Sac3 (construct of the in vitro binding studies of Figure S6) (domain or fragment)
chain: T3 sequence (looked up)
modifications: Supplement text on Sus1 affinity (Figure S6): plates coated with GST-Sac3(723-805) co-complexed with full-length Cdc31; GST and the Cdc31 partner chain (P06704) omitted here
B2: GST-GANP(1162–1240) (domain or fragment, human, UniProt O60318 1162-1240, looked up)
chain: ELVLSELSQGLAVELMERVMMEFVRETCSQELKNAVETDQRVRVARCCEDVCAHLVDLFLVEEIFQTAKETLQELQCFC
notes: Vector pGEXTEV; not shown: GST, N-terminal, kept
B3: Cdc31 (recombinant, untagged, full length) (natural protein, yeast, UniProt P06704 1-161, looked up)
chain: MSKNRSSLQSGPLNSELLEEQKQEIYEAFSLFDMNNDGFLDYHELKVAMKALGFELPKREILDLIDEYDSEGRHLMKYDDFYIVMGEKILKRDPLDEIKRAFQLFDDDHTGKISIKNLRRVAKELGETLTDEELRAMIEEFDLDGDGEINENEFIAICTDS
notes: Cdc31, yeast, full length, cloned into pET30a and called untagged; the model holds residues 9–161; source: E. coli BL21(DE3) CodonPlus RIL, coexpressed with GST-Sac3 fragments, purified as a complex
B4: Sac3 residues 753–805 (domain or fragment, yeast, UniProt P46674 753-805, looked up)
chain: EANYRKDFIDTMTRELYDAFLHERLYLIYMDSRAELKRNSTLKKKFFEKWQAS
notes: Vector pGEXTEV; not shown: GST, N-terminal, cleaved
B5: Sus1 (recombinant, untagged, full length) (natural protein, yeast, UniProt Q6WNK7 1-96, looked up)
chain: T1 sequence (looked up)
notes: Sus1, yeast, full length; the model holds residues 6–95; also called Sus1A; Sus1B; source: E. coli BL21(DE3) CodonPlus RIL, untagged vector pOPT, purified as a complex with Sac3 fragment and Cdc31
B6: GST-Sac3(758–805) (domain or fragment, yeast, UniProt P46674 758-805, looked up)
chain: KDFIDTMTRELYDAFLHERLYLIYMDSRAELKRNSTLKKKFFEKWQAS
notes: Vector pGEXTEV; The methods say that GST-Sac3 fragments were coexpressed with Cdc31; source: E. coli, immobilised on glutathione Sepharose 4B resin from clarified lysate; not shown: GST, N-terminal, kept
B7: GST-GANP(1162–1204) (domain or fragment, human, UniProt O60318 1162-1204, looked up)
chain: ELVLSELSQGLAVELMERVMMEFVRETCSQELKNAVETDQRVR
notes: as for B2
B8: GST-Sac3(723–752) (domain or fragment, yeast, UniProt P46674 723-752, looked up)
chain: KQVITEQIANDLVKEVVNSSVISIVKREFS
notes: Vector pGEXTEV; source: E. coli, immobilised on glutathione Sepharose 4B resin from clarified lysate; not shown: GST, N-terminal, kept

Assay [1] concerns the target T1, Sus1 (of the in vitro binding studies …). The experiment in a line: not stated; in vitro binding studies (Figure S6).
The next assay addresses T2, 6XHis-ENY2. The experiment in a line: pull-down; GST or GST fusions immobilised on glutathione Sepharose 4B; purified ENY2 added in 10-fold excess, washed extensively with NB buffer (150 mM NaCl, 50 mM KOAc, 20 mM Tris, 2 mM Mg(OAc)2, 0.1% NP-40); SDS-PAGE (Figure S4). The settings on record: both partners purified.
For assay [2], the target named is T3, Sac3 residues 723–805 (Sac3^CID). Nature of the assay: crystal structure; Sac3 fragment:Cdc31:Sus1 complexes, hanging drop vapor diffusion in PEG solutions at 19°C; 2.5 Å (Sac3 753–805) and 2.7 Å (Sac3 723–805). The following applies: both partners purified.
For assay [3], the target named is B3. Described as above. The settings on record: both partners purified.
For assay [4], the target named is B5. The assay is described as above. The settings on record: both partners purified.

One may read the Kd as a measure of binding affinity in units of concentration. In assay [1], B1 had a Kd of about 10 nM. In the case of B2, the binding result with 6XHis-ENY2 is “binds”.

For orientation: stoichiometry N means a count of units in the complex or per binding partner. For B3, the “stoichiometry N” value in assay [2] was found to be 1. With B4, the binding result in assay [3] and in assay [4] was “binds” in each case. As to B5, the “stoichiometry N” value in assay [2] worked out at 2. For the molecule B6, in the assay with 6XHis-ENY2, the binding result was “binds”. In the case of B7, the binding result with 6XHis-ENY2 is on record as “binds”. In the case of B8, the binding result in the assay with 6XHis-ENY2 is reported as “binds”.
